Patent US20120165211A1, “Human Antibodies Cross-Reacting With A Bacterial And A Self Antigen From Atherosclerotic Plaques” (priority 2007, published 2012)

Biological target: T1, transgelin 1 (SM22) (Homo sapiens, UniProt Q01995)
T1 construct: A piece of the coronary plaque was weighted (65 mg), cut in small fragments and directly smashed with a Dounce; from tissue; host or cells: human coronary atherosclerotic plaque
Experiment: 2D electrophoresis Western blotting on plaque lysate and MALDI-ToF identification of the recognized antigen
Assay type: binding
Settings: two distinct spots of the 2D gel; confirmed by protein sequencing
Procedure: A piece of the coronary plaque was weighted (65 mg), cut in small fragments and directly smashed with a Dounce in 500 μl of the R5 buffer, containing: urea 8M, thiourea 2M, CHAPS 4%, Zwittergent 0.05%, 40 mM trizma base and a cocktail of protease inhibitors. The lysate was then sonicated for 5 minutes and centrifuged at 13,000 rpm for 30 minutes at 15° C. Supernatant protein content was evaluated by Bradford assay, using BSA dissolved in the same buffer, as standard. The proteins (200 μg), dissolved in R5 buffer (final volume 130 μl), were added to DeStreak (100 mM) and 2% IPG buffer pH 3-10NL, prior to loading the sample on strip pH 3-10NL, 7 cm. Total focusing run for the 1st dimension was 50,000 Vh. The 2nd dimension was carried out using 12.5% acrylamide SDS-PAGE. MW Standard proteins were run on the same gel. The gel was stained with colloidal Coomassie Brilliant Blue (cCBB). […]
Protein corresponding to positive spots in WB were excised from the gel, destained, reduced with DTE (10 mM in ammonium bicarbonate 25 mM) at 56° C. for 30 minutes, alkylated with IAA (55 mM in ammonium bicarbonate 25 mM) in the dark at room temperature for 20 minutes. They were digested with trypsin and directly analysed by MALDI-ToF mass spectrometry, using alpha-cyano-4-hydroxycinnamic acid as matrix. […]

T1 sequence (Q01995 whole entry, the tested form may be a part): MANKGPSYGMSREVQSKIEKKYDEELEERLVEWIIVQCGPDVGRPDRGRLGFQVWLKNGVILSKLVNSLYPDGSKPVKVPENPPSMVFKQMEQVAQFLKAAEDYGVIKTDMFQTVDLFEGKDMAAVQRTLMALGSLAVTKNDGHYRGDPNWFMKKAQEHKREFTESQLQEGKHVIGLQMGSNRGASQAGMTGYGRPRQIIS

B1: Fab7816: human recombinant Fab from coronary plaque library ID11LIB; heavy chain SEQ ID NO:2, light chain SEQ ID NO:4 (antibody, listed as Homo sapiens, V domains shown)
VH: LESGPGQVKPSQTLSLTCTVSGGSIGSGSYSWNWIRQPAGRGLEWIGRISDSGNTNFNPSLKSRVTMSVDTSKNQFALKLTSVTAADTATYFCARGRGILTGLFDYWGQGSLVSVSSASTKGPSVFPLAPSSKSTSGGTAALGCLVKD
VL: SPDSLAVSPGGRATIKCASSQSVLDNSNHKNSLAWYQQKPGLPPKLLIYWASTRYSGVPDRFSGSGSGTDFTLTINNLQAADVAVYFCQQYYSTPWTFGQGTKVE
self antigen recognized in plaque lysate (2DE-WB spots, mass spectrometry): transgelin 1 (SM22) was unequivocally identified as the putative natural (self) antigen
